Substrate in the data set: NCCCCc1ccccc1
The experiment in a line: Activity of human MAOB.

B1: Amine oxidase [flavin-containing] B (Homo sapiens) (protein)
chain: MSNKCDVVVVGGGISGMAAAKLLHDSGLNVVVLEARDRVGGRTYTLRNQKVKYVDLGGSYVGPTQNRILRLAKELGLETYKVNEVERLIHHVKGKSYPFRGPFPPVWNPITYLDHNNFWRTMDDMGREIPSDAPWKAPLAEEWDNMTMKELLDKLCWTESAKQLATLFVNLCVTAETHEVSALWFLWYVKQCGGTTRIISTTNGGQERKFVGGSGQVSERIMDLLGDRVKLERPVIYIDQTRENVLVETLNHEMYEAKYVISAIPPTLGMKIHFNPPLPMMRNQMITRVPLGSVIKCIVYYKEPFWRKKDYCGTMIIDGEEAPVAYTLDDTKPEGNYAAIMGFILAHKARKLARLTKEERLKKLCELYAKVLGSLEALEPVHYEEKNWCEEQYSGGCYTTYFPPGILTQYGRVLRQPVDRIYFAGTETATHWSGYMEGAVEAGERAAREILHAMGKIPEDEIWQSEPESVDVPAQPITTTFLERHLPSVPGLLRLIGLTTIFSATALGFLAHKRGLLVRV
Regarding B1, the kcat (as a rule, the number of substrate molecules converted per active site and unit of time at saturation) stood at 1.82 s⁻¹.

For the origin of these results see ChEMBL document CHEMBL1151754, “Structural and mechanistic studies of mofegiline inhibition of recombinant human monoamine oxidase B” (J Med Chem, 2008).
